These are literature values, as cited in patent US5861377A, “Antistasin type serine protease inhibitors” (Novartis AG, priority 1994, dated 1999).

One data set has as its target T1, Trypsin (Bos taurus, UniProt P00760).
T1 sequence (P00760 24-246): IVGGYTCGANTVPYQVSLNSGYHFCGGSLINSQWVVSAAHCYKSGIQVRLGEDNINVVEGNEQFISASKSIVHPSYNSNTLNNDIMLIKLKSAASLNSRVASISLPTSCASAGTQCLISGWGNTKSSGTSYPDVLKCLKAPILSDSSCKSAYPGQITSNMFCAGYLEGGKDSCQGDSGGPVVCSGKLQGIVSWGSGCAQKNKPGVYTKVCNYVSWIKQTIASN
Particulars: bovine trypsin; data from Dunwiddie et al.

The target of a further data set is Factor Xa (Homo sapiens, UniProt P00742). The note with it: data from Dunwiddie et al.
Factor Xa, sequence (P00742 235-488 limits assumed): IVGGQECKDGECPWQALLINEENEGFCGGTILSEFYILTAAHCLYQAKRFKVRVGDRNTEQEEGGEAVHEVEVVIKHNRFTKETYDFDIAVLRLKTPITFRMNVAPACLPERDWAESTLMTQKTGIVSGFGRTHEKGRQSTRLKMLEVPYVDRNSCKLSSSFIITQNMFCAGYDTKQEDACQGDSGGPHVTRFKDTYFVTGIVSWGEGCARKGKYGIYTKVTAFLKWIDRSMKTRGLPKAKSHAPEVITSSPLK
Factor Xa, sequence (P00742 41-179 partner limits assumed): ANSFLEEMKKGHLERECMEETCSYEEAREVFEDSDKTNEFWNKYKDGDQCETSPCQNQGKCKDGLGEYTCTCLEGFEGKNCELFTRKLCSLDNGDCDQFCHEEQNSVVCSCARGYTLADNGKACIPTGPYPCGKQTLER

B1: Antistasin: cysteine-rich serine proteinase inhibitor of 119 amino acids from the Mexican leech Haementeria officinalis; factor Xa inhibitor (protein)
chain: EGPFGPGCEEAGCPEGSACNIITDRCTCSGVRCRVHCPHGFQRSRYGCEFCKCRKEPMKATCDISECPEGMMCSRKTNKCDCKIDINCRKTCPNGLKRDKGCEYCECRFKRKLIPRLS
Broadly, the IC50 is the concentration needed to halve the response being measured. Turning to B1, the IC50 in the data set with Trypsin was 5 nM; with Factor Xa, 1 nM.
